Results on ten molecules are retold here after US20210364527A1.

The target of assay [1] is FA peptide (N-terminal phenylalanine, penultimate alanine; rest of sequence not given). Kind of assay: stopped-flow, complex mixed with excess unlabelled trap peptide.
The target of assay [2] is T1, LA peptide (N-terminal leucine, penultimate alanine; rest of sequence not given). The assay is described as above.
The target in assay [3] is peptide containing N-terminal phospho-serine. Briefly: negative control, single-molecule, SH2 variant immobilized, labeled phospho-serine peptide in solution; bottom trace.
Assay [4] addresses fluorescently-labeled peptide containing N-terminal phospho-tyrosine. Kind of assay: single-molecule, SH2 variant immobilized in sample wells, labeled peptide in solution; top panel.
Assay [5] deals with peptide containing N-terminal phospho-serine. Briefly: negative control, single-molecule, SH2 variant immobilized, labeled phospho-serine peptide in solution; middle trace.
The target of assay [6] is fluorescently-labeled peptide containing N-terminal phospho-tyrosine. Briefly: single-molecule, SH2 variant immobilized in sample wells, labeled peptide in solution; top plot (top trace of FIG. 22A).
Assay [7] has the same target. Briefly: single-molecule, SH2 variant immobilized in sample wells, labeled peptide in solution; middle plot (middle trace of FIG. 22A).
Assay [8] addresses peptide containing N-terminal phospho-serine. Briefly: negative control, single-molecule, SH2 variant immobilized, labeled phospho-serine peptide in solution; top trace.
Assay [9] has as its target fluorescently-labeled peptide containing N-terminal phospho-tyrosine. Kind of assay: single-molecule, SH2 variant immobilized in sample wells, labeled peptide in solution; bottom plot (bottom trace of FIG. 22A).
The target is the same in assay [10]. Kind of assay: single-molecule, SH2 variant immobilized in sample wells, labeled peptide in solution; bottom panel.
Assay [11] deals with T2, N-terminal leucine peptide ….
T2 sequence (peptide): LAAIAAFAADDDW
Briefly: peptide-on-chip recognition assay, dye-labelled PS372.

For assay [12], the target named is T1, LA peptide (N-terminal leucine, …). Briefly: binder-on-chip single-molecule assay.
In assay [13] the target is IR peptide (N-terminal IR; rest of sequence not given). Kind of assay: binder-on-chip, run 94158.
Assay [14] addresses IA peptide (N-terminal isoleucine, penultimate alanine; rest of sequence not given). Kind of assay: binder-on-chip single-molecule assay.
The target of assay [15] is IR peptide (N-terminal IR; rest of sequence not given). Kind of assay: binder-on-chip single-molecule assay.
Assay [16] deals with peptide having an N-terminal tryptophan residue (rest of sequence not given).
The target in assay [17] is polypeptide with a terminal leucine residue (rest of sequence not given).
For assay [18], the target named is peptide having an N-terminal phenylalanine residue (rest of sequence not given).
Assay [19] addresses peptide having an N-terminal (unmodified) tyrosine residue (rest of sequence not given).

B1: PS703 (atClpS2-V1-SNAP TAG fusion) (designed binder)
chain: MSDSPVDLKPKPKVKPKLERPKLYKVMLLNDDYTPMSFVTVVLKAVFRMSEDTGRRVMMTAHRFGSAVVVVCERDIAETKAKEATDLGKEAGFPLMFTTEPEEGSAGSAAGSGEFMDKDCEMKRTTLDSPLGKLELSGCEQGLHEIKLLGKGTSAADAVEVPAPAAVLGGPEPLMQATAWLNAYFHQPEAIEEFPVPALHHPVFQQESFTRQVLWKLLKVVKFGEVISYQQLAALAGNPAATAAVKTALSGNPVPILIPCHRVVSSSGAVGGYEGGLAVKEWLLAHEGHRLGKPGLGGSAGSAAGSGEFHHHHHHHHHHGGGSGGGSGGGSGLNDFFEAQKIEWHEGGGSGGGSGGGSGLNDFFEAQKIEWHE
With B1, in assay [1], the off-rate constant (koff) – broadly, the first-order rate constant of dissociation – worked out at 0.767 s⁻¹.

B2: PS698 (PS557-SNAP TAG fusion 2) (designed binder)
chain: MPTAASATESAIEDTPAPARPEVDGRTKPKRQPRYHVVLWNDDDHTYQYVVVMLQSLFGHPPERGYRLAKEVDTQGRVIVLTTTREHAELKRDQIHAFGYDRLLARSKGSMKASIEAEEHHHHHHHHHHGGGSGGGSGGGSGLNDFFEAQKIEWHEGGGSGGGSGGGSGLNDFFEAQKIEWHEGSAGSAAGSGEFMDKDCEMKRTTLDSPLGKLELSGCEQGLHEIKLLGKGTSAADAVEVPAPAAVLGGPEPLMQATAWLNAYFHQPEAIEEFPVPALHHPVFQQESFTRQVLWKLLKVVKFGEVISYQQLAALAGNPAATAAVKTALSGNPVPILIPCHRVVSSSGAVGGYEGGLAVKEWLLAHEGHRLGKPGLG
In the case of B2, in assay [2], the off-rate constant (koff) came to 0.19 s⁻¹.

B3: H. sapiens Fyn SH2 domain triple mutant superbinder (designed binder)
chain: MGAMDSIQAEEWYFGKLGRKDAERQLLSFGNPRGTFLIRESETVKGAYALSIRDWDDMKGDHVKHYLIRKLDNGGYYITTRAQFETLQQLVQHYSERAAGLSSRLVVPSHK
On to B3, for which the pulse duration, M (median) of one trace is 0.1 s in [3]; 0.11 s in [5]; 0.15 s in [6]; 0.15 s in assay [7]; 0.09 s in assay [8]; 0.17 s in assay [9]. The pulse duration, μ (mean) of one trace is 0.16 s in assay [3]; 0.15 s in [5]; 0.25 s in assay [6]; 0.23 s in assay [7]; 0.09 s in assay [8]; 0.26 s in assay [9]. In assay [4], this molecule displayed a mean pulse duration (dashed line of the distribution) of 0.26 s. Also, in [10], the mean interpulse duration (dashed line of the distribution) is 0.51 s.

B4: Planctomycetia bacterium ClpS homolog (PS557) (protein)
chain: MPTAASATESAIEDTPAPARPEVDGRTKPKRQPRYHVVLWNDDDHTYQYVVVMLQSLFGHPPERGYRLAKEVDTQGRVIVLTTTREHAELKRDQIHAFGYDRLLARSKGSMKASIEAEE
B4 gave an off-rate constant (koff) in assay [2] of 0.22 s⁻¹.

B5: PS696 (PS557-SNAP TAG fusion) (designed binder)
chain: MPTAASATESAIEDTPAPARPEVDGRTKPKRQPRYHVVLWNDDDHTYQYVVVMLQSLFGHPPERGYRLAKEVDTQGRVIVLTTTREHAELKRDQIHAFGYDRLLARSKGSMKASIEAEEGSAGSAAGSGEFMDKDCEMKRTTLDSPLGKLELSGCEQGLHEIKLLGKGTSAADAVEVPAPAAVLGGPEPLMQATAWLNAYFHQPEAIEEFPVPALHHPVFQQESFTRQVLWKLLKVVKFGEVISYQQLAALAGNPAATAAVKTALSGNPVPILIPCHRVVSSSGAVGGYEGGLAVKEWLLAHEGHRLGKPGLGGSAGSAAGSGEFHHHHHHHHHHGGGSGGGSGGGSGLNDFFEAQKIEWHEGGGSGGGSGGGSGLNDFFEAQKIEWHE
Regarding B5, the koff in assay [2] came out at 0.15 s⁻¹.

B6: PS372 (ClpS homolog) (protein)
chain: MAFPARGKTAPKNEVRRQPPYNVILLNDDDHTYRYVIEMLQKIFGFPPEKGFQIAEEVDRTGRVILLTTSKEHAELKQDQVHSYGPDPYLGRPCSGSMTCVIEPAV
In the case of B6, the mean pulse width in assay [11] is 957 ms; in assay [12] it was 876 ms; in assay [13] it was 86 ms. For the same molecule, the Median pulse width in [13] amounted to 64 ms. Also, the figures for the pulse duration in [14] and in assay [15] were 70 ms and 83 ms, respectively.

B7: Agrobacterium tumifaciens ClpS1 (atClpS1) (protein)
chain: MIAEPICMQGEGDGEDGGTNRGTSVITRVKPKTKRPNLYRVLLLNDDYTPMEFVIHILERFFQKDREAATRIMLHVHQHGVGECGVFTYEVAETKVSQVMDFARQHQHPLQCVMEKK
On to B7, for which the mean pulse duration (dashed line of the distribution) in assay [16] worked out at 0.34 s; in [17], 0.31 s; in assay [18] it was 0.59 s; in assay [19], 0.69 s.

B8: PS705 (atClpS2-V1-SNAP TAG fusion 2) (designed binder)
chain: MSDSPVDLKPKPKVKPKLERPKLYKVMLLNDDYTPMSFVTVVLKAVFRMSEDTGRRVMMTAHRFGSAVVVVCERDIAETKAKEATDLGKEAGFPLMFTTEPEEHHHHHHHHHHGGGSGGGSGGGSGLNDFFEAQKIEWHEGGGSGGGSGGGSGLNDFFEAQKIEWHEGSAGSAAGSGEFMDKDCEMKRTTLDSPLGKLELSGCEQGLHEIKLLGKGTSAADAVEVPAPAAVLGGPEPLMQATAWLNAYFHQPEAIEEFPVPALHHPVFQQESFTRQVLWKLLKVVKFGEVISYQQLAALAGNPAATAAVKTALSGNPVPILIPCHRVVSSSGAVGGYEGGLAVKEWLLAHEGHRLGKPGLG
The molecule B8 showed an off-rate constant (koff) in assay [1] of 1.27 s⁻¹.

B9: PS704 (atClpS2-V1-2xSNAP TAG fusion) (designed binder)
chain: MSDSPVDLKPKPKVKPKLERPKLYKVMLLNDDYTPMSFVTVVLKAVFRMSEDTGRRVMMTAHRFGSAVVVVCERDIAETKAKEATDLGKEAGFPLMFTTEPEEGSAGSAAGSGEFMDKDCEMKRTTLDSPLGKLELSGCEQGLHEIKLLGKGTSAADAVEVPAPAAVLGGPEPLMQATAWLNAYFHQPEAIEEFPVPALHHPVFQQESFTRQVLWKLLKVVKFGEVISYQQLAALAGNPAATAAVKTALSGNPVPILIPCHRVVSSSGAVGGYEGGLAVKEWLLAHEGHRLGKPGLGMDKDCEMKRTTLDSPLGKLELSGCEQGLHEIKLLGKGTSAADAVEVPAPAAVLGGPEPLMQATAWLNAYFHQPEAIEEFPVPALHHPVFQQESFTRQVLWKLLKVVKFGEVISYQQLAALAGNPAATAAVKTALSGNPVPILIPCHRVVSSSGAVGGYEGGLAVKEWLLAHEGHRLGKPGLGGSAGSAAGSGEFHHHHHHHHHHGGGSGGGSGGGSGLNDFFEAQKIEWHEGGGSGGGSGGGSGLNDFFEAQKIEWHE
As to B9, the off-rate (koff) in [1] came to 0.677 s⁻¹.

B10: PS706 (atClpS2-V1-EF fusion) (designed binder)
chain: MSDSPVDLKPKPKVKPKLERPKLYKVMLLNDDYTPMSFVTVVLKAVFRMSEDTGRRVMMTAHRFGSAVVVVCERDIAETKAKEATDLGKEAGFPLMFTTEPEEGSAGSAAGSGEFMIKKYTGDFETTTDLNDCRVWSWGVCDIDNVDNITFGLEIDSFFEWCEMQGSTDIYFHDEKFDGEFMLSWLFKNGFKWCKEAKEERTFSTLISNMGQWYALEICWNVKCTTTKTGKTKKEKQRTIIYDSLKKYPFPVKEIAEAFNFPIKKGEIDYTKERPIGYNPTDDEWDYLKNDIQIMAMALKIQFDQGLTRMTRGSDALGDYQDWVKTTYGKSRFKQWFPVLSLGFDKDLRKAYKGGFTWVNKVFQGKEIGEGIVFDVNSLYPSQMYVRPLPYGTPLFYEGEYKENIDYPLYIQNIKVRFRLKERHIPTIQVKQSSLFIQNEYLESSVNKLGVDELIDLTLTNVDLDLFFEHYDILEIHYTYGYMFKASCDMFKGWIDKWIEVKNTTEGARKANAKGMLNSLYGKFGTNPDITGKVPYMGEDGIVRLTLGEEELRDPVYVPLASFVTAWGRYTTITTAQRCFDNIIYCDTDSIHLTGTEVPEAIEHLVDSKKLGYWKHESTFQRAKFIRQKTYVEEIDGELNVKCAGMPDRIKELVTFDNFEVGFSSYGKLLPKRTQGGVVLVDTMFTIKGSAGSAAGSGEFHHHHHHHHHHGGGSGGGSGGGSGLNDFFEAQKIEWHEGGGSGGGSGGGSGLNDFFEAQKIEWHE
The molecule B10 yielded a koff in [1] of 0.589 s⁻¹.
